Data reported in publication PMC9335916 (ACS Central Science, 2022).

Molecular target: trypsin from porcine pancreas (porcine, UniProt P00761 9-231)
Experiment: native MS

trypsin from porcine pancreas, sequence (P00761 9-231): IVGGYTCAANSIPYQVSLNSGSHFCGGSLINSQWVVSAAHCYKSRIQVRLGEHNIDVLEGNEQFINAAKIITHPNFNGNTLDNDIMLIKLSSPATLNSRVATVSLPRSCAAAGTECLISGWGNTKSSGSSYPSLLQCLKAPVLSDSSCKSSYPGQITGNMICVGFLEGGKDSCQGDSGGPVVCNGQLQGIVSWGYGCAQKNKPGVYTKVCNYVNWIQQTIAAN

B1: Soybean trypsin inhibitor (natural protein)
chain: DFVLDNEGNPLENGGTYYILSDITAFGGIRAAPTGNERCPLTVVQSRNELDKGIGTIISSPYRIRFIAEGHPLSLKFDSFAVIMLCVGIPTEWSVVEDLPEGPAVKIGENKDAMDGWFRLERVSDDEFNNYKLVFCPQQAEDDKCGDIGISIDHDDGTRRLVVSKNKPLVVQFQKLDKESL
B1 was tested, and the “apparent Kd (without RF correction)” value was 27.1 ± 8.4 µM.
